Measured values: PMC5856381

Biological target: recombinant haptoglobin Hp1S, C1r-LP processed (rHp 1–1) (human) (UniProt P00738)
Experiment: non-reducing SDS-PAGE; Coomassie-stained gel of non-reduced protein samples; disulfide-linked dimers and multimers

Q: Which stoichiometry N does the source give for “recombinant haptoglobin Hp1S, C1r-LP processed (rHp 1–1) (from UniProt P00738-2 19-101) (natural protein)” here?
A: 2
